According to patent US7439329B2, “GEF-H1b: biomarkers, complexes assays and therapeutic uses thereof” (Sugen, Inc., priority 2002, dated 2008):

Experiments:
[1] = target: T1, PAK4 (Homo sapiens, UniProt O96013); experiment: GST pull-down binding assay with 293T lysates expressing exogenous PAK4; parameters: expressed in transfected cells; host or cells: 293T; settings: GST-fusion protein on glutathione beads
Procedure: FIG. 1: (SEQ ID NOs 32-34 respectively in order of appearance) Direct binding of GEF-H1 to PAK4. Lysates were prepared from 293T cells over expressing (a) myc tagged PAK4 alleles or subdomains and incubated with GST, GST-GEF-H1 (787-921) and GST-Maguin-like bound to Glutathione beads (1,2,3,4 bead designation) or (b) GFP-GEF-H1 and incubated with PAK4 biotinylated peptides (291-355) and (276-324) linked to streptavidin beads. An equivalent amount of beads and excess lysates (500 ug) were used. Eluates of beads and total lysates were analysed by SDS-PAGE and immunoblotted with myc or GEF-H1 antiserum; (c) represents a PAK4 gene schematic outlining the regions of PAK4 used to identify the GEF-H1 interaction domain (GID). d, alignment of the GID defined by the minimal binding region of PAK4 with PAK5 and PAK6.
To confirm the in vitro interaction of GEF-H1S with PAK4, bacterially expressed GST-fusion proteins were generated with the identical sequences isolated by phage display, encoding either amino acids 763-921 of GEF-H1S or amino acids 385-555 from the Maguin-2-like protein. These fusion proteins were bound to glutathione beads and utilized in binding assays with 293T lysates expressing exogenous PAK4. […]
Target sequence in this assay (O96013 whole entry, the tested form may be a part): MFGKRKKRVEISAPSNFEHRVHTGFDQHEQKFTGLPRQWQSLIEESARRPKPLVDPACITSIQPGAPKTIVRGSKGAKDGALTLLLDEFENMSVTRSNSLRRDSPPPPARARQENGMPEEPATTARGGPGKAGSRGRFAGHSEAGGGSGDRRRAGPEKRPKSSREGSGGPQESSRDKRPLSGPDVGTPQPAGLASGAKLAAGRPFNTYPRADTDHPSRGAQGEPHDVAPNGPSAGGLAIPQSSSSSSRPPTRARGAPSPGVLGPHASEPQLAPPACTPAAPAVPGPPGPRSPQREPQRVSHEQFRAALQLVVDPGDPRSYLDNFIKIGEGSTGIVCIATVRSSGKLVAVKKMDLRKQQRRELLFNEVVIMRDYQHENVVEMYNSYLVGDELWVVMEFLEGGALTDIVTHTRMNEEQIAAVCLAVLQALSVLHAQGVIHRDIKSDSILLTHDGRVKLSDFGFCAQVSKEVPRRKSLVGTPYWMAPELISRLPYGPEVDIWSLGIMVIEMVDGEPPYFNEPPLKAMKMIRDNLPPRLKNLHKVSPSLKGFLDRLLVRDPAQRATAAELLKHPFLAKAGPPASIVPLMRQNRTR

[2] = target: T1, PAK4; experiment: In vitro kinase assay, phosphorylation of substrates by PAK4; assay type: biochemical; parameters: Glutathione-s-transferase (GST) fused PAK4 (residues 291-591); GST (N); made in house; settings: autoradiography
Procedure: Next examined, was whether GEF-H1 is a PAK4 substrate. In vitro kinase assays were performed using a GEF-H1 GST-fusion protein, a Maguin-2-like GST-fusion protein and GST control protein as substrates for phosphorylation by PAK4.
The cDNA encoding GEF-H1S obtained in the phage display screen was excised and subcloned into pGEX-4T expression vector to allow for recombinant production of protein for in vitro experiments. The GEF-H1S protein was then mixed with PAK4 kinase and incubated such that PAK4 phosphorylated the GEF-H1S. A portion of this kinase reaction was separated by SDS-PAGE and autoradiographed to visualize the extent of phosphorylation. […] SDS-PAGE is a universal protein separation and visualization technique that is described in Laemmli, Nature, 227(259):680-5, 1970.
From the phosphorylation experiments described above, two peptides of GEF-H1S were identified as being targets for PAK4-induced phosphorylation. The GEF-H1S target residues were identified by aligning the PAK4 activation loop peptide with the GEF-H1S polypeptide sequence amino acids 762 to 921.
The following phosphoisomers (phosphate-modified GEF-H1S peptides) were used in PAK4 kinase assays to determine which residues were specifically phosphorylated. Because certain residues were modified to comprise a phosphate moiety (the underlined residues below), they could not be phosphorylated by PAK4. […]
Target sequence in this assay (O96013 291-591): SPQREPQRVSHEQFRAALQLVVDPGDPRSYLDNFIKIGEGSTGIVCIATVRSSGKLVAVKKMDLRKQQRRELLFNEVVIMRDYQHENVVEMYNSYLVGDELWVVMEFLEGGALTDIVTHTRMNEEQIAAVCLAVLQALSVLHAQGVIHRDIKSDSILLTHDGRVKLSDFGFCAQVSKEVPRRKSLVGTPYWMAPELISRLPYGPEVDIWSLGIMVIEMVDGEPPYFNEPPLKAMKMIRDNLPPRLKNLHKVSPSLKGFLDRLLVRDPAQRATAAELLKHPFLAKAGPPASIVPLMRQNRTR

B1: GST-GEF-H1S (aa763-921): bacterially expressed GST-fusion protein of amino acids 763-921 of GEF-H1S (protein)
chain: LRESEQARALLEREAEEARRQLAALGQTEPLPAEAPWARRPVDPRRRSLPAGDALYLSFNPPQPSRGTDRLDLPVTTRSVHRNFEDRERQELGSPEERLQDSSDPDTGSEEEGSSRLSPPHSPRGETLAETWTRDFTRMQDIPEETESRDGEAVASES
modifications: left off: a dimerising Fc or GST
notes: bacterially expressed GST-fusion protein of amino acids 763-921 of GEF-H1S
[1]
  binding to full-length myc-tagged PAK4 protein and the kinase domain (amino acids 291-591): able to bind strongly
[2]
  phosphorylation by PAK4 in vitro: showed phosphorylation
